Data taken from patent US20150369821A1 (Pieris, published 2015).
Each block holds one binder with its values, some of them ahead of it.

Experiments:
non-modified Hepcidin-25 [1] = molecular target: T1, non-modified Hepcidin-25 (human, not fully specified); test: competition ELISA, non-modified Hepcidin-25 in solution (25 pM)
T1 construct: also called Hepc25; mature human hepcidin
T1 peptide: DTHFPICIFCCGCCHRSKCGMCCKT

non-modified Hepcidin-25 [2] = molecular target: T1, non-modified Hepcidin-25; test: cell-based or functional assay

IC50 (non-modified Hepcidin-25 [1]): 0.18 nM
In Vitro Neutralization Activity Assay, IC50 [nM] (cell-based hepcidin-induced internalization of ferroportin-GFP) (non-modified Hepcidin-25 [2]): 25 nM
B1: hepcidin-specific lipocalin mutein of SEQ ID NO: 8 (designed binder)
chain: QDSTSDLIPAPPLSKVPLQQNFQDNQFHGKWYVVGLAGNEVLREDKDPMKMWATIYELKEDKSYNVTIVMPLAEKCEYLFQTFVPGSQPGEFTLGGIKSGPGRTSGLVRVVSTNYNQHAMVFFKVVWQNREVFWVTLYGRTKELTSELKENFIRFSKSLGLPENHIVFPVPIDQCIDG
notes: Mutein of human NGAL (lipocalin 2); also called hNGAL mutein

IC50 (non-modified Hepcidin-25 [1]): 0.1 nM
In Vitro Neutralization Activity Assay, IC50 [nM] (cell-based hepcidin-induced internalization of ferroportin-GFP) (non-modified Hepcidin-25 [2]): 31 nM
B2: hepcidin-specific lipocalin mutein of SEQ ID NO: 10 (designed binder)
chain: QDSTSDLIPAPPLSKVPLQQNFQDNQFHGKWYVVGLAGNEILREDKDPMKMWATIYELKEDRSYNVTIVMFLAKKCEYLFQTFVPGSQPGEFTLGDIKSSPGRTSGLVRVVSTNYNQHAMVFFKVVWQNREVFWITLYGRTKELTPELKENFIRFSKSLGLPENHIVFPVPIDQCIDGF
notes: as for B1
